Substitutions are numbered along the chain they refer to.

In one series the target is T1, QKI-5 (His-tagged) (UniProt Q96PU8 1-341).
T1 sequence: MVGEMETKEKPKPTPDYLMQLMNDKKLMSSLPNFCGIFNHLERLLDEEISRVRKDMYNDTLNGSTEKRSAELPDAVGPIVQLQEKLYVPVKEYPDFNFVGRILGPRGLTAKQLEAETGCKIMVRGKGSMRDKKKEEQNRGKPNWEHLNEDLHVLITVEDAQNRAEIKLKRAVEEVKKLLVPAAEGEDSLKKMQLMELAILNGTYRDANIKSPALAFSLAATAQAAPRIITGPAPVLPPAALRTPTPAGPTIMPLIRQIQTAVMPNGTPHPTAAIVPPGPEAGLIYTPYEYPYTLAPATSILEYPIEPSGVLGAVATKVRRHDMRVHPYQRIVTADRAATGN
As to the kind of experiment: EMSA; 0-2080 nM QKI-5; EMSA: 10 ng 32P-RNA, standard splicing conditions, 30 C, 20 min, then tRNA 5 min; 5% native PAGE; buffer, salt and pH not given. To be noted: protein: recombinant; tags: His-tag (pET-28a); reverse primer also encodes C-terminal FLAG; chain copies: 2; label: 32P. In general terms: A gel shift assay detects complexes by their altered migration in electrophoresis.

Another series addresses T2, SF1 (aa 1-361) (UniProt Q15637 1-361).
T2 sequence: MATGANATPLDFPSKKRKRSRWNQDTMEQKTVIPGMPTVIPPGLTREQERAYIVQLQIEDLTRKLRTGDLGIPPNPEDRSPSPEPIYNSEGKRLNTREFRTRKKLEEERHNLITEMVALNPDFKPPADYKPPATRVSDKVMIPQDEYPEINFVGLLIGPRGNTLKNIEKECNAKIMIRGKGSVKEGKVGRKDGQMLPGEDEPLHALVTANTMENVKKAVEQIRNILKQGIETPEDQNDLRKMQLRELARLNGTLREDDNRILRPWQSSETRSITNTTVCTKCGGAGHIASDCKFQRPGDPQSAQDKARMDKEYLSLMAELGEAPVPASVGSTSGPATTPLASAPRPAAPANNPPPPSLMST
As to the kind of experiment: EMSA; 5-10x molar excess; EMSA: 10 ng 32P-RNA, standard splicing conditions, 30 C, 20 min, then tRNA 5 min; 5% native PAGE; buffer, salt and pH not given. To be noted: protein: recombinant; tags: N-terminal GST (pGEX-5X-2); label: 32P.

B1: NUMB mut2 RNA (ssRNA)
RNA: GGGCACUUGUACACCCUGCAUGAAUUGACUCCAUUGAUGUUGUCUGCUCCCGUUGUAGCGAGUGGCACUGACUCAGCCUUCCAU
Turning to B1, the binding result with QKI-5 (His-tagged) is “no binding”.

B2: NUMB mut1 RNA (ssRNA)
RNA: B1 RNA with G27A
For B2, in the series with SF1 (aa 1-361), the binding result is recorded as “binds”.

The record behind these values is article PMC3983035, “The RNA-Binding Protein QKI Suppresses Cancer-Associated Aberrant Splicing”.
